Experimental findings from IntAct's records for PubMed 31515488 are described below.

First the molecules themselves.
B1: Actin filament-associated protein 1-like 1 (Homo sapiens), Q8TED9 (parent)
chain: MDRGQVLEQLLPELTGLLSLLDHEYLSDTTLEKKMAVASILQSLQPLPAKEVSYLYVNTADLHSGPSFVESLFEEFDCDLSDLRDMPEDDGEPSKGASPELAKSPRLRNAADLPPPLPNKPPPEDYYEEALPLGPGKSPEYISSHNGCSPSHSIVDGYYEDADSSYPATRVNGELKSSYNDSDAMSSSYESYDEEEEEGKSPQPRHQWPSEEASMHLVRECRICAFLLRKKRFGQWAKQLTVIREDQLLCYKSSKDRQPHLRLALDTCSIIYVPKDSRHKRHELRFTQGATEVLVLALQSREQAEEWLKVIREVSKPVGGAEGVEVPRSPVLLCKLDLDKRLSQEKQTSDSDSVGVGDNCSTLGRRETCDHGKGKKSSLAELKGSMSRAAGRKITRIIGFSKKKTLADDLQTSSTEEEVPCCGYLNVLVNQGWKERWCRLKCNTLYFHKDHMDLRTHVNAIALQGCEVAPGFGPRHPFAFRILRNRQEVAILEASCSEDMGRWLGLLLVEMGSRVTPEALHYDYVDVETLTSIVSAGRNSFLYARSCQNQWPEPRVYDDVPYEKMQDEEPERPTGAQVKRHASSCSEKSHRVDPQVKVKRHASSANQYKYGKNRAEEDARRYLVEKEKLEKEKETIRTELIALRQEKRELKEAIRSSPGAKLKALEEAVATLEAQCRAKEERRIDLELKLVAVKERLQQSLAGGPALGLSVSSKPKSGETANKPQNSVPEQPLPVNCVSELRKRSPSIVASNQGRVLQKAKEWEMKKT
partner: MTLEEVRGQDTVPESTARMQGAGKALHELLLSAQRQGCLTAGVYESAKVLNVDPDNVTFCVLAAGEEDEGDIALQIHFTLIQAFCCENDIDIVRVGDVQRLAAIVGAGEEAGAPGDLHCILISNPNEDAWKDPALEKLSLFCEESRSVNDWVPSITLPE
B2: Protein FAM9B (Homo sapiens), Q8IZU0 (parent)
chain: MAAWGKKHAGKDPVRDECEERNRFTETREEDVTDEHGEREPFAETDEHTGANTKKPEDTAEDLTAKRKRMKMDKTCSKTKNKSKHALRKKQLKRQKRDYIHSLKLLNVLEEYITDEQKEEEEEEGEEEELIRIFQEQQKKWQQYRSVRRERLKEMKLLRDQFVKALEDFEDLCDRVFSDEDSELDN
partner: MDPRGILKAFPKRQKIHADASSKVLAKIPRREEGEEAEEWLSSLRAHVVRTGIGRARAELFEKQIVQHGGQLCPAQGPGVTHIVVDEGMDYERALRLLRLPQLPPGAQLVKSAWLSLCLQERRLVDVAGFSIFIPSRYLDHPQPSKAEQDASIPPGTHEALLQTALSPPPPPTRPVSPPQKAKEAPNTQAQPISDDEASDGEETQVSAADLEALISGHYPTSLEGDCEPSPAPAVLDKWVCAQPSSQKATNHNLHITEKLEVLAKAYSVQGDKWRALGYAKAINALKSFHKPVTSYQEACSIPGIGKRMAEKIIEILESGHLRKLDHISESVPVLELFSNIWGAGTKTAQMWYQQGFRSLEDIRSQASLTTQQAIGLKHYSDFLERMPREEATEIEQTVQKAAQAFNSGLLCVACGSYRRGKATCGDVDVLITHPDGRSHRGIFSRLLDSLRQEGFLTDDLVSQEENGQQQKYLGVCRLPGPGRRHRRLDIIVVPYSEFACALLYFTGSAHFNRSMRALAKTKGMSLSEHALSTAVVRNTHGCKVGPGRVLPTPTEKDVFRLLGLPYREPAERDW
B3: Protein FAM9B (Homo sapiens), Q8IZU0 (parent)
chain: B2 chain
partner: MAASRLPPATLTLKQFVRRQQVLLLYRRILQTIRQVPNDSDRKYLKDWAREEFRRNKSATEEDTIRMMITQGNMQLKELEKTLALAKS
B4: Keratin, type II cytoskeletal 2 epidermal (Homo sapiens), P35908 (parent)
chain: MSCQISCKSRGRGGGGGGFRGFSSGSAVVSGGSRRSTSSFSCLSRHGGGGGGFGGGGFGSRSLVGLGGTKSISISVAGGGGGFGAAGGFGGRGGGFGGGSSFGGGSGFSGGGFGGGGFGGGRFGGFGGPGGVGGLGGPGGFGPGGYPGGIHEVSVNQSLLQPLNVKVDPEIQNVKAQEREQIKTLNNKFASFIDKVRFLEQQNQVLQTKWELLQQMNVGTRPINLEPIFQGYIDSLKRYLDGLTAERTSQNSELNNMQDLVEDYKKKYEDEINKRTAAENDFVTLKKDVDNAYMIKVELQSKVDLLNQEIEFLKVLYDAEISQIHQSVTDTNVILSMDNSRNLDLDSIIAEVKAQYEEIAQRSKEEAEALYHSKYEELQVTVGRHGDSLKEIKIEISELNRVIQRLQGEIAHVKKQCKNVQDAIADAEQRGEHALKDARNKLNDLEEALQQAKEDLARLLRDYQELMNVKLALDVEIATYRKLLEGEECRMSGDLSSNVTVSVTSSTISSNVASKAAFGGSGGRGSSSGGGYSSGSSSYGSGGRQSGSRGGSGGGGSISGGGYGSGGGSGGRYGSGGGSKGGSISGGGYGSGGGKHSSGGGSRGGSSSGGGYGSGGGGSSSVKGSSGEAFGSSVTFSFR
partner: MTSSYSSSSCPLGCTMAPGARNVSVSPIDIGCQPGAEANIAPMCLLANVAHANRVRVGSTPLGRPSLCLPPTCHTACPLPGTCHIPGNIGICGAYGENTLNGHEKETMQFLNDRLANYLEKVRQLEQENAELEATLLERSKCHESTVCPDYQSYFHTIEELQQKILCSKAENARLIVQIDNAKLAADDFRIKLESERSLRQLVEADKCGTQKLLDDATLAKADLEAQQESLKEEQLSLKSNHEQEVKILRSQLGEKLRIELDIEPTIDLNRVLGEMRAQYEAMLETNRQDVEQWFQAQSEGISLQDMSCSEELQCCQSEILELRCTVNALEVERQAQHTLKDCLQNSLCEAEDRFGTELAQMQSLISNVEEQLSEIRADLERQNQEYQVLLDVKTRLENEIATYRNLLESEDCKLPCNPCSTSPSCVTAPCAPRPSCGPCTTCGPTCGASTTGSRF
B5: Cysteine-rich C-terminal protein 1 (Homo sapiens), Q9UGL9 (parent)
chain: MSSQQSAVSAKGFSKGSSQGPAPCPAPAPTPAPASSSSCCGSGRGCCGDSGCCGSSSTSCCCFPRRRRRQRSSGCCCCGGGSQRSQRSNNRSSGCCSGC
B6: Adenosylhomocysteinase (Homo sapiens), P23526 (parent)
chain: MSDKLPYKVADIGLAAWGRKALDIAENEMPGLMRMRERYSASKPLKGARIAGCLHMTVETAVLIETLVTLGAEVQWSSCNIFSTQDHAAAAIAKAGIPVYAWKGETDEEYLWCIEQTLYFKDGPLNMILDDGGDLTNLIHTKYPQLLPGIRGISEETTTGVHNLYKMMANGILKVPAINVNDSVTKSKFDNLYGCRESLIDGIKRATDVMIAGKVAVVAGYGDVGKGCAQALRGFGARVIITEIDPINALQAAMEGYEVTTMDEACQEGNIFVTTTGCIDIILGRHFEQMKDDAIVCNIGHFDVEIDVKWLNENAVEKVNIKPQVDRYRLKNGRRIILLAEGRLVNLGCAMGHPSFVMSNSFTNQVMAQIELWTHPDKYPVGVHFLPKKLDEAVAEAHLGKLNVKLTKLTEKQAQYLGMSCDGPFKPDHYRY
B7: Paraneoplastic antigen Ma2 (Homo sapiens), Q9UL42 (parent)
chain: MALALLEDWCRIMSVDEQKSLMVTGIPADFEEAEIQEVLQETLKSLGRYRLLGKIFRKQENANAVLLELLEDTDVSAIPSEVQGKGGVWKVIFKTPNQDTEFLERLNLFLEKEGQTVSGMFRALGQEGVSPATVPCISPELLAHLLGQAMAHAPQPLLPMRYRKLRVFSGSAVPAPEEESFEVWLEQATEIVKEWPVTEAEKKRWLAESLRGPALDLMHIVQADNPSISVEECLEAFKQVFGSLESRRTAQVRYLKTYQEEGEKVSAYVLRLETLLRRAVEKRAIPRRIADQVRLEQVMAGATLNQMLWCRLRELKDQGPPPSFLELMKVIREEEEEEASFENESIEEPEERDGYGRWNHEGDD
B8: Myogenin (Homo sapiens), P15173 (parent)
chain: MELYETSPYFYQEPRFYDGENYLPVHLQGFEPPGYERTELTLSPEAPGPLEDKGLGTPEHCPGQCLPWACKVCKRKSVSVDRRRAATLREKRRLKKVNEAFEALKRSTLLNPNQRLPKVEILRSAIQYIERLQALLSSLNQEERDLRYRGGGGPQPGVPSECSSHSASCSPEWGSALEFSANPGDHLLTADPTDAHNLHSLTSIVDSITVEDVSVAFPDETMPN
partner: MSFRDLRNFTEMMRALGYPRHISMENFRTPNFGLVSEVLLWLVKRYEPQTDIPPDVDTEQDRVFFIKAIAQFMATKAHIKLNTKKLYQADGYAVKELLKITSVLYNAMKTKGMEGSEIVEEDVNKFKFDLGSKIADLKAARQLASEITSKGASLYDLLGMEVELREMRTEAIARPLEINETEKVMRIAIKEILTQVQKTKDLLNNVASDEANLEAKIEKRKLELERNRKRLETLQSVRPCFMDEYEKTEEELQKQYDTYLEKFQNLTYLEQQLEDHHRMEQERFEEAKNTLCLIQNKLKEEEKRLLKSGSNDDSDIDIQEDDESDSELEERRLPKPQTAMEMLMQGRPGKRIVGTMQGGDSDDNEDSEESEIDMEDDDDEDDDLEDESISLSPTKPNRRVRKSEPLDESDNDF
B9: Syntaxin-binding protein 4 (Homo sapiens), Q6ZWJ1 (parent)
chain: MNKNTSTVVSPSLLEKDPAFQMITIAKETGLGLKVLGGINRNEGPLVYIQEIIPGGDCYKDGRLKPGDQLVSVNKESMIGVSFEEAKSIITGAKLRLESAWEIAFIRQKSDNIQPENLSCTSLIEASGEYGPQASTLSLFSSPPEILIPKTSSTPKTNNDILSSCEIKTGYNKTVQIPITSENSTVGLSNTDVASAWTENYGLQEKISLNPSVRFKAEKLEMALNYLGIQPTKEQHQALRQQVQADSKGTVSFGDFVQVARNLFCLQLDEVNVGAHEISNILDSQLLPCDSSEADEMERLKCERDDALKEVNTLKEKLLESDKQRKQLTEELQNVKQEAKAVVEETRALRSRIHLAEAAQRQAHGMEMDYEEVIRLLEAKITELKAQLADYSDQNKESVQDLKKRIMVLDCQLRKSEMARKTFEASTEKLLHFVEAIQEVFSDNSTPLSNLSERRAVLASQTSLTPLGRNGRSIPATLALESKELVKSVRALLDMDCLPYGWEEAYTADGIKYFINHVTQTTSWIHPVMSVLNLSRSEENEEDCSRELPNQKS
partner: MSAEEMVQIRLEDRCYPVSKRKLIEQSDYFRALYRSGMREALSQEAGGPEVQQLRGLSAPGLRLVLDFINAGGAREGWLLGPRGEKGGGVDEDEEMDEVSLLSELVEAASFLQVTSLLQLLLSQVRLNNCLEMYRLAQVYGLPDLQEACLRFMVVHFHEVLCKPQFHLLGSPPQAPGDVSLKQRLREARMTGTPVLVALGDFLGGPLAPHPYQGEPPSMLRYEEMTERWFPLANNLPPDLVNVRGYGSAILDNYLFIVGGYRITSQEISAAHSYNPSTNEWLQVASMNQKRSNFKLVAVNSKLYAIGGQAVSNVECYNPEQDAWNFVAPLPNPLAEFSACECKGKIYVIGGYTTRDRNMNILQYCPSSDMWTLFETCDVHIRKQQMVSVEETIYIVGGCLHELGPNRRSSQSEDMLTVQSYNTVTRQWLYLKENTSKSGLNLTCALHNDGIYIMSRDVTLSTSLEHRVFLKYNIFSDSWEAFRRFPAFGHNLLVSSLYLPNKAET

In one test the parent is B1. The note with it: with ga45g_human GADD45G.
As to S98N, the “effect of a mutation on the interaction” value was “with no effect”.

On to L406P, for which the “effect of a mutation on the interaction” value is on record as “with no effect”.

In a further test the parent is B2. The note with it: with dpoll_human POLL.
As for R23H, the “effect of a mutation on the interaction” value is “with no effect”.

In another test the parent is B3. The note with it: with lyrm2_human LYRM2, Q9NU23.
As to R23H, the “effect of a mutation on the interaction” value is recorded as “with no effect”.

In the next test the parent is B4. The note with it: with krt38_human KRT38, O76015.
As to A517G, the “effect of a mutation on the interaction” value is on record as “with no effect”.

Variants of B5 are the subject of another test. The note with it: with nt2na_human NOTCH2NLA.
Take G20S: the “effect of a mutation on the interaction” value is on record as “with no effect”.

In the next test the parent is B6. The note with it: with ca050_human C1orf50, Q9BV19.
Sequence of ca050_human C1orf50, Q9BV19 (Q9BV19 whole entry): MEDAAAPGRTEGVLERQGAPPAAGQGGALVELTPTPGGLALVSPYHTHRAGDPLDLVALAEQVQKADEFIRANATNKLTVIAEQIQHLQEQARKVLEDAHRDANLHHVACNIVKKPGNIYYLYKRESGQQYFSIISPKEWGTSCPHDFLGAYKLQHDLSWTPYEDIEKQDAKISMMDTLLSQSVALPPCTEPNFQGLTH
Consider I92V, for which the “effect of a mutation on the interaction” value was “with no effect”.

The variants in the next test derive from B7. The note with it: with sdcb1_human SDCBP.
Take E186K: the “effect of a mutation on the interaction” value is on record as “with no effect”.

In the next test the parent is B7. The note with it: with psa1_human PSMA1, P25786.
Sequence of psa1_human PSMA1, P25786 (P25786 whole entry): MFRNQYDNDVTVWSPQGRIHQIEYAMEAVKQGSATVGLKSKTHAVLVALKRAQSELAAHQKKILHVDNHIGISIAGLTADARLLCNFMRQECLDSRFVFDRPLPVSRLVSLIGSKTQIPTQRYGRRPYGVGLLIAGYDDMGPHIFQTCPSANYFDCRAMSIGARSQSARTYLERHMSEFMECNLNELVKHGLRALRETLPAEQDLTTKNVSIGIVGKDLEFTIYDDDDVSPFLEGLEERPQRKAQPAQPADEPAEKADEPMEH
Consider E186K, for which the “effect of a mutation on the interaction” value is “with no effect”.

Another test covers variants of B8. The note with it: with clua1_human CLUAP1, Q96AJ1.
As to P49H, the “effect of a mutation on the interaction” value is given as “with no effect”.

For R147C, the “effect of a mutation on the interaction” value is “with no effect”.

Variants of B9 are the subject of another test. The note with it: with klh42_human KLHL42, Q9P2K6.
Take C120R: the “effect of a mutation on the interaction” value was “with no effect”.
